Self-cleavage data for 167 variants are collected here from the RNAGym collection of RNA variant scans (doi:10.7554/elife.90254).

B1: LINE1-full (parent)
chain: UACGUAGGUGGUUUUCCCCUGAUAGUGCUAAGGGGGCCUGGAAGUUUGGACUGGGCAGAGCUCAACACAGCGUGGCAAAGUGGCUGUGGCUAGACUGCCUCUCUGGAUUCCUCGUCACUCAGCAGGGCAUCUCUGAGAGAAAUGCC

This series covers variants of B1. Put plainly: self-cleavage, relative activity (ratio to wild type); higher = more cleavage; in vitro, sequencing; the parent is a self-cleaving ribozyme.
As to U12A U132C, the self-cleavage turned out to be 1.41.

Regarding U12G G36A, the self-cleavage was 0.22.

For the variant G11A, the self-cleavage turned out to be 1.31.

Regarding G11U, the self-cleavage is 1.56.

With G11C, the self-cleavage is 1.42.

Consider U12G A129U, for which the self-cleavage amounted to 1.49.

For U12A U13A, the self-cleavage was 1.08.

With U9G U47C, the self-cleavage was found to be 0.54.

As for U12C G75C, the self-cleavage is 0.66.

In the case of U12G C145G, the self-cleavage is 0.99.

Take U12G U96C: the self-cleavage was 0.27.

Turning to G11A A64C, the self-cleavage is 0.1.

As to G10A U104A, the self-cleavage was 0.91.

Turning to U12C G49A, the self-cleavage was found to be 1.28.

With U12G A65G, the self-cleavage was determined as 0.23.

Turning to G11A U26C, the self-cleavage stood at 1.4.

U9C U134C: the self-cleavage came out at 1.05.

Take U12A A92G: the self-cleavage was found to be 0.

Consider U12A A57G, for which the self-cleavage came out at 1.23.

As for U12A U23A, the self-cleavage turned out to be 1.58.

On to U12A U23C, for which the self-cleavage came out at 1.47.

U12C A136U: the self-cleavage worked out at 1.43.

Regarding U12C G82C, the self-cleavage was determined as 2.15.

For U12A U85C, the self-cleavage was determined as 0.2.

Regarding U12C U102C, the self-cleavage was 1.18.

With U12C U102G, the self-cleavage came to 0.88.

With U12G U91C, the self-cleavage was 1.02.

U12C U130C: the self-cleavage was 1.4.

G11A U132C: the self-cleavage is 1.03.

As for G11A U52C, the self-cleavage is 1.41.

Regarding U12G U14A, the self-cleavage amounted to 0.44.

Regarding U12C A94G, the self-cleavage came to 0.37.

Take U12C G36C: the self-cleavage amounted to 0.95.

In the case of U12A C66U, the self-cleavage worked out at 0.06.

For the variant G11U A69G, the self-cleavage is 0.44.

Turning to U12C U26C, the self-cleavage was 1.39.

For U12C U26A, the self-cleavage was found to be 1.03.

For the variant U12C U109A, the self-cleavage worked out at 1.49.

Regarding U12G U100C, the self-cleavage was found to be 1.33.

Turning to U12A G70A, the self-cleavage came out at 0.18.

Regarding U12G A124G, the self-cleavage worked out at 0.84.

Consider U9G A117U, for which the self-cleavage came to 1.07.

On to U9G A117G, for which the self-cleavage turned out to be 1.31.

For the variant G11A U15A, the self-cleavage worked out at 0.99.

Consider U12C C131U, for which the self-cleavage came out at 1.29.

As to U9C U112G, the self-cleavage was found to be 2.63.

For U12A U102A, the self-cleavage was 1.79.

In the case of U12C A77G, the self-cleavage was determined as 1.8.

Take U12C A77U: the self-cleavage is 1.26.

Turning to G11U A42G, the self-cleavage came out at 1.58.

Regarding U12G G32C, the self-cleavage came to 1.04.

For U9G U112C, the self-cleavage was determined as 0.73.

U9G U96C: the self-cleavage was 0.

As for G10U U13C, the self-cleavage is 0.83.

As to U12C U52C, the self-cleavage came out at 1.11.

In the case of U12C U52G, the self-cleavage amounted to 1.84.

In the case of G10A G21A, the self-cleavage was 1.14.

Turning to U12C C146U, the self-cleavage was 1.63.

With U12C C146A, the self-cleavage amounted to 1.45.

U12C A64G: the self-cleavage came to 0.28.

Regarding U12C U134G, the self-cleavage is 1.97.

For the variant U12C U134C, the self-cleavage worked out at 1.3.

For U12A U143C, the self-cleavage is 1.14.

For U12A U143A, the self-cleavage stood at 1.28.

Regarding G10A A69G, the self-cleavage was determined as 0.64.

Regarding G10A A65U, the self-cleavage turned out to be 0.14.

As to G10A A65G, the self-cleavage worked out at 0.02.

On to U12A A42G, for which the self-cleavage is 1.28.

As for U12A A42U, the self-cleavage came out at 1.75.

Take G10A U115C: the self-cleavage turned out to be 1.51.

Regarding G10A U115A, the self-cleavage worked out at 0.86.

For G11A C120U, the self-cleavage was 1.35.

On to U12A A107U, for which the self-cleavage was 1.61.

For U12A U52G, the self-cleavage is 2.35.

Regarding U12C C19U, the self-cleavage turned out to be 1.08.

On to G10A A117U, for which the self-cleavage was found to be 1.21.

U12C G144A: the self-cleavage was determined as 1.08.

Turning to G11A G126A, the self-cleavage is 1.2.

Take U12C C17U: the self-cleavage came out at 1.3.

G11C U109C: the self-cleavage was 2.63.

With G11A A69G, the self-cleavage turned out to be 0.48.

In the case of U12A C18G, the self-cleavage was 1.01.

Take U12G U73A: the self-cleavage came out at 1.68.

In the case of U12G U73C, the self-cleavage was found to be 1.54.

For U12G C113A, the self-cleavage came out at 1.84.

Turning to U12C G41U, the self-cleavage came out at 1.25.

Regarding U12C A42G, the self-cleavage came out at 1.48.

On to U12C A42C, for which the self-cleavage was determined as 0.85.

As to G11A A94G, the self-cleavage amounted to 0.08.

For G11A U96C, the self-cleavage was 0.08.

For U12A C16A, the self-cleavage is 0.97.

Regarding U12G G70A, the self-cleavage was 0.07.

Consider U9G A124U, for which the self-cleavage is 1.12.

U12C A59G: the self-cleavage came to 0.15.

Regarding U12G A79U, the self-cleavage is 1.3.

Take U12C C116U: the self-cleavage was 0.77.

As for U12G A30U, the self-cleavage came out at 0.83.

Consider U12G A30G, for which the self-cleavage was 1.2.

Regarding U12G G58A, the self-cleavage was 0.11.

Consider U12C A65U, for which the self-cleavage came out at 0.21.

As to G11A A124G, the self-cleavage came out at 0.85.

Take U12G C99A: the self-cleavage worked out at 0.32.

U9G: the self-cleavage amounted to 0.93.

For the variant G11A A77G, the self-cleavage was 1.08.

For U12G A138G, the self-cleavage worked out at 1.29.

G10A A31G: the self-cleavage was 0.45.

Regarding U12C C38U, the self-cleavage was 1.16.

As to U12G A22G, the self-cleavage came to 1.04.

Take U12G U102C: the self-cleavage is 0.59.

As to U9C U119A, the self-cleavage amounted to 1.36.

For the variant U9C U119C, the self-cleavage came out at 1.36.

In the case of U12C U45A, the self-cleavage stood at 0.88.

For the variant U12C U45G, the self-cleavage was determined as 1.35.

As to U12C U45C, the self-cleavage was 0.98.

For U12G G44U, the self-cleavage came out at 1.1.

Take U12G C90U: the self-cleavage amounted to 0.08.

Turning to U12A A124U, the self-cleavage is 1.23.

In the case of U12A A124G, the self-cleavage was 0.87.

With U12G A77C, the self-cleavage came to 0.69.

As for U12G A77U, the self-cleavage was found to be 0.78.

With U12G A42G, the self-cleavage was 1.42.

Turning to U12C G72A, the self-cleavage was 1.25.

In the case of U12C G83U, the self-cleavage worked out at 1.07.

For the variant U12G U45A, the self-cleavage stood at 1.3.

Regarding G10A G11A, the self-cleavage worked out at 1.61.

In the case of G10A U52A, the self-cleavage was 0.97.

Regarding U12G U20A, the self-cleavage amounted to 1.08.

For G11C U20A, the self-cleavage was determined as 0.54.

Turning to U12C C56A, the self-cleavage was 0.01.

With U12C C113A, the self-cleavage turned out to be 0.64.

For the variant U12C C113U, the self-cleavage is 0.76.

For the variant U9G G74A, the self-cleavage was 0.88.

U12C A24C: the self-cleavage is 1.61.

Consider U12C A24U, for which the self-cleavage is 1.18.

Regarding U12C A117G, the self-cleavage came to 1.84.

Take U12C U87A: the self-cleavage stood at 0.06.

Take U12A A22G: the self-cleavage was determined as 1.14.

In the case of G10A U96C, the self-cleavage amounted to 0.16.

As to G10U U112C, the self-cleavage was 0.93.

U12A A31U: the self-cleavage is 2.

With U12G A31G, the self-cleavage came to 0.87.

As to G10C U96A, the self-cleavage was 0.22.

For the variant G10A C131U, the self-cleavage was 1.19.

For U12C A31G, the self-cleavage was 1.24.

Turning to G10A U109C, the self-cleavage came out at 1.08.

In the case of U12G G139A, the self-cleavage was 0.95.

In the case of G11A A42G, the self-cleavage was 1.43.

Consider U12C G48A, for which the self-cleavage was found to be 0.97.

On to G11A U109C, for which the self-cleavage stood at 1.4.

As for U12A C76U, the self-cleavage was 1.23.

In the case of U12C A124U, the self-cleavage was found to be 1.29.

In the case of U12G G21A, the self-cleavage was found to be 1.19.

Regarding G11A G70U, the self-cleavage stood at 0.07.

Turning to U12G A59G, the self-cleavage was 0.23.

For the variant U12C U23A, the self-cleavage was found to be 1.08.

U12G G34U: the self-cleavage is 2.48.

Take G11C A50G: the self-cleavage was 0.71.

On to G10U A42G, for which the self-cleavage was 0.

Consider U9G U102C, for which the self-cleavage was determined as 1.26.

Consider U12A U87A, for which the self-cleavage came to 0.11.

In the case of U9G A65G, the self-cleavage came out at 0.25.

Consider U12A G72A, for which the self-cleavage was found to be 1.41.

Consider U12G A24U, for which the self-cleavage is 1.5.

With U12C A69U, the self-cleavage came out at 0.09.

Regarding U12C A69G, the self-cleavage stood at 0.64.

U12C U132C: the self-cleavage amounted to 1.13.

In the case of U12C U132A, the self-cleavage is 1.31.
